Experimental data taken from paper PMC4157418.

Molecular target: Acinetobacter baumannii alanine racemase (Acinetobacter baumannii strain NCTC13302) (UniProt B0VNF6)
Assay: crystal structure; sitting drops, 100 mM MES pH 6.0, 200 mM CaCl2, 20% PEG 6000; space group P2(1), two monomers in the asymmetric unit; 1.9 Å; interface analysed with PISA

Acinetobacter baumannii alanine racemase (from UniProt B0VNF6 1-367) (enzyme)
stoichiometry N: 2
